B1: MADH4 (protein, UniProt Q13485 1-552, looked up)
Mothers against …: MDNMSITNTPTSNDACLSIVHSLMCHRQGGESETFAKRAIESLVKKLKEKKDELDSLITAITTNGAHPSKCVTIQRTLDGRLQVAGRKGFPHVIYARLWRWPDLHKNELKHVKYCQYAFDLKCDSVCVNPYHYERVVSPGIDLSGLTLQSNAPSSMMVKDEYVHDFEGQPSLSTEGHSIQTIQHPPSNRASTETYSTPALLAPSESNATSTANFPNIPVASTSQPASILGGSHSEGLLQIASGPQPGQQQNGFTGQPATYHHNSTTTWTGSRTAPYTPNLPHHQNGHLQHHPPMPPHPGHYWPVHNELAFQPPISNHPAPEYWCSIAYFEMDVQVGETFKVPSSCPIVTVDGYVDPSGGDRFCLGQLSNVHRTEAIERARLHIGKGVQLECKGEGDVWVRCLSDHAVFVQSYYLDREAGRAPGDAVHKIYPSAYIKVFDLRQCHRQMQQQAATAQAAAAAQAAAVAGNIPGPGSVGGIAPAISLSAAAGIGVDDLRRLCILRMSFVKGWGPDYPRQSIKETPCWIEIHLHRALQLLDEVLHTMPIADPQPLD
B2: MDFI (protein, UniProt Q99750 1-246, looked up)
MyoD family inhibitor: MYQVSGQRPSGCDAPYGAPSAAPGPAQTLSLLPGLEVVTGSTHPAEAAPEEGSLEEAATPMPQGNGPGIPQGLDSTDLDVPTEAVTCQPQGNPLGCTPLLPNDSGHPSELGGTRRAGNGALGGPKAHRKLQTHPSLASQGSKKSKSSSKSTTSQIPLQAQEDCCVHCILSCLFCEFLTLCNIVLDCATCGSCSSEDSCLCCCCCGSGECADCDLPCDLDCGILDACCESADCLEICMECCGLCFSS
B3: MAEL (protein, UniProt Q96JY0 1-434, looked up)
Protein maelstrom homolog: MPNRKASRNAYYFFVQEKIPELRRRGLPVARVADAIPYCSSDWALLREEEKEKYAEMAREWRAAQGKDPGPSEKQKPVFTPLRRPGMLVPKQNVSPPDMSALSLKGDQALLGGIFYFLNIFSHGELPPHCEQRFLPCEIGCVKYSLQEGIMADFHSFINPGEIPRGFRFHCQAASDSSHKIPISNFERGHNQATVLQNLYRFIHPNPGNWPPIYCKSDDRTRVNWCLKHMAKASEIRQDLQLLTVEDLVVGIYQQKFLKEPSKTWIRSLLDVAMWDYSSNTRCKWHEENDILFCALAVCKKIAYCISNSLATLFGIQLTEAHVPLQDYEASNSVTPKMVVLDAGRYQKLRVGSSGFSHFNSSNEEQRSNTPIGDYPSRAKISGQNSSVRGRGITRLLESISNSSSNIHKFSNCDTSLSPYMSQKDGYKSFSSLS
B4: MBLR (protein, UniProt Q9BYE7 1-350, looked up)
Polycomb group RING finger …: MEGVAVVTAGSVGAAKTEGAAALPPPPPVSPPALTPAPAAGEEGPAPLSETGAPGCSGSRPPELEPERSLGRFRGRFEDEDEELEEEEELEEEEEEEEEDMSHFSLRLEGGRQDSEDEEERLINLSELTPYILCSICKGYLIDATTITECLHTFCKSCIVRHFYYSNRCPKCNIVVHQTQPLYNIRLDRQLQDIVYKLVINLEEREKKQMHDFYKERGLEVPKPAVPQPVPSSKGRSKKVLESVFRIPPELDMSLLLEFIGANEGTGHFKPLEKKFVRVSGEATIGHVEKFLRRKMGLDPACQVDIICGDHLLEQYQTLREIRRAIGDAAMQDGLLVLHYGLVVSPLKIT
B5: ASCL4 (protein, UniProt Q6XD76 1-172, looked up)
Achaete-scute homolog 4: METRKPAERLALPYSLRTAPLGVPGTLPGLPRRDPLRVALRLDAACWEWARSGCARGWQYLPVPLDSAFEPAFLRKRNERERQRVRCVNEGYARLRDHLPRELADKRLSKVETLRAAIDYIKHLQELLERQAWGLEGAAGAVPQRRAECNSDGESKASSAPSPSSEPEEGGS
B6: ASCL3 (protein, UniProt Q9NQ33 1-181, looked up)
Achaete-scute homolog 3: MMDNRGNSSLPDKLPIFPDSARLPLTRSFYLEPMVTFHVHPEAPVSSPYSEELPRLPFPSDSLILGNYSEPCPFSFPMPYPNYRGCEYSYGPAFTRKRNERERQRVKCVNEGYAQLRHHLPEEYLEKRLSKVETLRAAIKYINYLQSLLYPDKAETKNNPGKVSSMIATTSHHADPMFRIV
B7: MEIS3 (protein, UniProt Q99687 1-375, looked up)
Homeobox protein Meis3: MARRYDELPHYPGIVDGPAALASFPETVPAVPGPYGPHRPPQPLPPGLDSDGLKREKDEIYGHPLFPLLALVFEKCELATCSPRDGAGAGLGTPPGGDVCSSDSFNEDIAAFAKQVRSERPLFSSNPELDNLMIQAIQVLRFHLLELEKVHDLCDNFCHRYITCLKGKMPIDLVIEDRDGGCREDFEDYPASCPSLPDQNNMWIRDHEDSGSVHLGTPGPSSGGLASQSGDNSSDQGDGLDTSVASPSSGGEDEDLDQERRRNKKRGIFPKVATNIMRAWLFQHLSHPYPSEEQKKQLAQDTGLTILQVNNWFINARRRIVQPMIDQSNRTGQGAAFSPEGQPIGGYTETQPHVAVRPPGSVGMSLNLEGEWHYL
B8: MESP1 (protein, UniProt Q9BRJ9 1-268, looked up)
Mesoderm posterior protein 1: MAQPLCPPLSESWMLSAAWGPTRRPPPSDKDCGRSLVSSPDSWGSTPADSPVASPARPGTLRDPRAPSVGRRGARSSRLGSGQRQSASEREKLRMRTLARALHELRRFLPPSVAPAGQSLTKIETLRLAIRYIGHLSAVLGLSEESLQRRCRQRGDAGSPRGCPLCPDDCPAQMQTRTQAEGQGQGRGLGLVSAVRAGASWGSPPACPGARAAPEPRDPPALFAEAACPEGQAMEPSPPSPLLPGDVLALLETWMPLSPLEWLPEEPK
B9: MAGED1 (protein, UniProt Q9Y5V3 1-778, looked up)
Melanoma-associated antigen D1: MAQKMDCGAGLLGFQAEASVEDSALLMQTLMEAIQISEAPPTNQATAAASPQSSQPPTANEMADIQVSAAAARPKSAFKVQNATTKGPNGVYDFSQAHNAKDVPNTQPKAAFKSQNATPKGPNAAYDFSQAATTGELAANKSEMAFKAQNATTKVGPNATYNFSQSLNANDLANSRPKTPFKAWNDTTKAPTADTQTQNVNQAKMATSQADIETDPGISEPDGATAQTSADGSQAQNLESRTIIRGKRTRKINNLNVEENSSGDQRRAPLAAGTWRSAPVPVTTQNPPGAPPNVLWQTPLAWQNPSGWQNQTARQTPPARQSPPARQTPPAWQNPVAWQNPVIWPNPVIWQNPVIWPNPIVWPGPVVWPNPLAWQNPPGWQTPPGWQTPPGWQGPPDWQGPPDWPLPPDWPLPPDWPLPTDWPLPPDWIPADWPIPPDWQNLRPSPNLRPSPNSRASQNPGAAQPRDVALLQERANKLVKYLMLKDYTKVPIKRSEMLRDIIREYTDVYPEIIERACFVLEKKFGIQLKEIDKEEHLYILISTPESLAGILGTTKDTPKLGLLLVILGVIFMNGNRASEAVLWEALRKMGLRPGVRHPLLGDLRKLLTYEFVKQKYLDYRRVPNSNPPEYEFLWGLRSYHETSKMKVLRFIAEVQKRDPRDWTAQFMEAADEALDALDAAAAEAEARAEARTRMGIGDEAVSGPWSWDDIEFELLTWDEEGDFGDPWSRIPFTFWARYHQNARSRFPQTFAGPIIGPGGTASANFAANFGAIGFFWVE
B10: MDM4 (protein, UniProt O15151 1-490, looked up)
Protein Mdm4: MTSFSTSAQCSTSDSACRISPGQINQVRPKLPLLKILHAAGAQGEMFTVKEVMHYLGQYIMVKQLYDQQEQHMVYCGGDLLGELLGRQSFSVKDPSPLYDMLRKNLVTLATATTDAAQTLALAQDHSMDIPSQDQLKQSAEESSTSRKRTTEDDIPTLPTSEHKCIHSREDEDLIENLAQDETSRLDLGFEEWDVAGLPWWFLGNLRSNYTPRSNGSTDLQTNQDVGTAIVSDTTDDLWFLNESVSEQLGVGIKVEAADTEQTSEEVGKVSDKKVIEVGKNDDLEDSKSLSDDTDVEVTSEDEWQCTECKKFNSPSKRYCFRCWALRKDWYSDCSKLTHSLSTSDITAIPEKENEGNDVPDCRRTISAPVVRPKDAYIKKENSKLFDPCNSVEFLDLAHSSESQETISSMGEQLDNLSEQRTDTENMEDCQNLLKPCSLCEKRPRDGNIIHGRTGHLVTCFHCARRLKKAGASCPICKKEIQLVIKVFIA
B11: MEF2A (protein, UniProt Q02078 1-507, looked up)
Myocyte-specific enhancer …: MGRKKIQITRIMDERNRQVTFTKRKFGLMKKAYELSVLCDCEIALIIFNSSNKLFQYASTDMDKVLLKYTEYNEPHESRTNSDIVEALNKKEHRGCDSPDPDTSYVLTPHTEEKYKKINEEFDNMMRNHKIAPGLPPQNFSMSVTVPVTSPNALSYTNPGSSLVSPSLAASSTLTDSSMLSPPQTTLHRNVSPGAPQRPPSTGNAGGMLSTTDLTVPNGAGSSPVGNGFVNSRASPNLIGATGANSLGKVMPTKSPPPPGGGNLGMNSRKPDLRVVIPPSSKGMMPPLSEEEELELNTQRISSSQATQPLATPVVSVTTPSLPPQGLVYSAMPTAYNTDYSLTSADLSALQGFNSPGMLSLGQVSAWQQHHLGQAALSSLVAGGQLSQGSNLSINTNQNISIKSEPISPPRDRMTPSGFQQQQQQQQQQQPPPPPQPQPQPPQPQPRQEMGRSPVDSLSSSSSSYDGSDREDPRGDFHSPIVLGRPPNTEDRESPSVKRMRMDAWVT
B12: MADH1 (protein, UniProt Q15797 1-465, looked up)
Mothers against …: MNVTSLFSFTSPAVKRLLGWKQGDEEEKWAEKAVDALVKKLKKKKGAMEELEKALSCPGQPSNCVTIPRSLDGRLQVSHRKGLPHVIYCRVWRWPDLQSHHELKPLECCEFPFGSKQKEVCINPYHYKRVESPVLPPVLVPRHSEYNPQHSLLAQFRNLGQNEPHMPLNATFPDSFQQPNSHPFPHSPNSSYPNSPGSSSSTYPHSPTSSDPGSPFQMPADTPPPAYLPPEDPMTQDGSQPMDTNMMAPPLPSEINRGDVQAVAYEEPKHWCSIVYYELNNRVGEAFHASSTSVLVDGFTDPSNNKNRFCLGLLSNVNRNSTIENTRRHIGKGVHLYYVGGEVYAECLSDSSIFVQSRNCNYHHGFHPTTVCKIPSGCSLKIFNNQEFAQLLAQSVNHGFETVYELTKMCTIRMSFVKGWGAEYHRQDVTSTPCWIEIHLHGPLQWLDKVLTQMGSPHNPISSVS

For this assay, the system named is HEK293FT cells transfected with TF library. Nature of the assay: Screening of TF condensates based on fluorescent puncta. The assay is classed as cell-based. The following applies: Figure 1B numerical data; TF library screen, one value per transcriptional factor. The essentials: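 Condensate formation is scored as Alexa 488-labelled puncta after Flag- or GAL4-tag immunostaining of fixed HEK293FT cells expressing individual TFs, with a 12 h glucose-free or glucose-containing culture preceding fixation.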
With B1, the “Z score of condensed fraction” value is -0.6861.
For B2 the value was 0.558; for B3, -0.816; for B4, 0.4702.
For B5 the value was 1.17; for B6, 0.02457; for B7, 1.7837.
For B8 the value was -1.02; for B9, -0.7984.
For B10, the “Z score of condensed fraction” value is on record as 2.3.
Take B11: the “Z score of condensed fraction” value was -0.6589.
For B12 the value was -0.2284.

The values are drawn from paper PMC11574045, “A cofactor-induced repressive type of transcription factor condensation can be induced by synthetic peptides to suppress tumorigenesis” (The EMBO Journal, 2024).
